Key:
[1] = target: T1, human αvβ3 integrin on cells (human, UniProt P06756 31-1048; P05106 27-788); assay: cell-based or functional assay
[2] = target: T2, αIIbβ3 on human platelets (human, UniProt P08514 32-1039; P05106 27-788); assay: flow cytometry on human platelets
T2 construct: whole, on cells; also called platelet αIIbβ3

[3] = target: T1, human αvβ3 integrin on cells; assay: flow cytometry binding isotherm, αvβ3-CHO cells, no treatment
Procedure: (§1) Typically, cells were cultured overnight in low serum medium (e.g., 0.5% fetal bovine serum), resuspended in incubation buffer at 1-1.5×10⁷ cells/ml, and 4-6×10⁵ cells were incubated with one of these ligands for 30 min at room temperature in a final volume of 50 μl. […] After 30 min at room temperature, cells were washed and incubated with phycoerythrin-streptavidin (1:25 final dilution; Molecular Probes) for 20 min on ice. […] Cells were washed and resuspended in 0.5 ml incubation buffer containing 2 μg/ml propidium iodide (Sigma, St. Louis, Mo.). Ligand binding (FL1 channel) was analyzed immediately on the gated subset of live cells (propidium iodide-negative, FL3) that was strongly positive for αᵥβ₃ expression (FL2). Binding isotherms were subjected to non-linear, least squares regression analysis using an equation for one-site binding (Prism 2.0 software; GraphPad Software, San Diego, Calif.). Two-tailed P values for paired samples were obtained by Student's t test.

[4] = target: T1, human αvβ3 integrin on cells; assay: flow cytometry, JY cells, 100 nM phorbol myristate acetate for 15 min
[5] = target: T1, human αvβ3 integrin on cells; assay: flow cytometry binding isotherm, αvβ3-CHO cells, activating antibody AP5
Procedure: as §1

[6] = target: T1, human αvβ3 integrin on cells; assay: flow cytometry, equilibrium binding, unstimulated αvβ3-CHO cells; reference aPB

T1 sequence (P06756 31-1048, chain 1 of 2): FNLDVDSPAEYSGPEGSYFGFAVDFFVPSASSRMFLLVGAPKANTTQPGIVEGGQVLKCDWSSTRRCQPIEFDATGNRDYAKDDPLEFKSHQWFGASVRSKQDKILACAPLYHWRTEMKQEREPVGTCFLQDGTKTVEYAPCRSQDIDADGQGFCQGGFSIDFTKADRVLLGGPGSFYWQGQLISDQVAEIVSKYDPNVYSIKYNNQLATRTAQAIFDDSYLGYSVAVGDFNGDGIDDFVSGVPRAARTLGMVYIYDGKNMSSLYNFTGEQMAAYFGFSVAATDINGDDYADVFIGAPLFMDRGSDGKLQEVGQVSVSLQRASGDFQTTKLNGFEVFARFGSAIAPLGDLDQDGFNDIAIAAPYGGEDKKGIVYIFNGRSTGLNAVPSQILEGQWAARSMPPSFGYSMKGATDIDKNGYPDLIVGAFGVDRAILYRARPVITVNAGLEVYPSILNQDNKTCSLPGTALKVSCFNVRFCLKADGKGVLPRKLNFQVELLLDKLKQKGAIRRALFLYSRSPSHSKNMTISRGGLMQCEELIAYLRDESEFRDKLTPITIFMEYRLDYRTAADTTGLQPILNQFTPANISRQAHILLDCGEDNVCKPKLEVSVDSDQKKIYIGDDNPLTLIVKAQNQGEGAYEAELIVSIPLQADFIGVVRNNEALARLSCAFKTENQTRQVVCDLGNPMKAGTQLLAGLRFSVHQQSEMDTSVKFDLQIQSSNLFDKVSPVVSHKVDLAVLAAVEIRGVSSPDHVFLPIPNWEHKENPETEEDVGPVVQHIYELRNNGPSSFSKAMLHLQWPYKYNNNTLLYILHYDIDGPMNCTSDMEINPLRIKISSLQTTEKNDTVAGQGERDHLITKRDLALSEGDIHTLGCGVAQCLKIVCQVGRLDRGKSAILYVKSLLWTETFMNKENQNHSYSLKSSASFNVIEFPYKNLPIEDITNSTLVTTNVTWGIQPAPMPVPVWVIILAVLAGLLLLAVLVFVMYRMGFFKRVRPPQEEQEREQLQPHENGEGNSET
T1 sequence (P05106 27-788, chain 2 of 2): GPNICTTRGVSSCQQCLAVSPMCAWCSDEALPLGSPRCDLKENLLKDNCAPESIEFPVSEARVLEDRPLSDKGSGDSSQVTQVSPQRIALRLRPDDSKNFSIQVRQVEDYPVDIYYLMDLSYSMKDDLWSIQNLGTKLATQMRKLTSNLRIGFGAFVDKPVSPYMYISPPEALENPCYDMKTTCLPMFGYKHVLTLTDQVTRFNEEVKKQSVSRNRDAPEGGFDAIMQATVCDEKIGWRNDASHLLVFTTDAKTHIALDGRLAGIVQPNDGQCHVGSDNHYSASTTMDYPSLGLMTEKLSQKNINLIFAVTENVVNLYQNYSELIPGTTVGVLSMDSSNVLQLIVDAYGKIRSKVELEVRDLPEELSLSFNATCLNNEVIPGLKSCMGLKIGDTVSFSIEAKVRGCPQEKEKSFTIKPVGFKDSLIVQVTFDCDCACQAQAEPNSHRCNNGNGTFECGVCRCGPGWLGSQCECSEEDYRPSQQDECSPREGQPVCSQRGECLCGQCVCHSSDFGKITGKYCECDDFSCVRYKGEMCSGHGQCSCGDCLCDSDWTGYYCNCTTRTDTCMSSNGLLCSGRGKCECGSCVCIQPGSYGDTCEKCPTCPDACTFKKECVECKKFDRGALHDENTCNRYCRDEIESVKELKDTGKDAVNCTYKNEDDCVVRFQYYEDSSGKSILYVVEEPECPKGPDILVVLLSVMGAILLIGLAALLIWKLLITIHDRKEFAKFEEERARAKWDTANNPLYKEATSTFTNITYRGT
T2 sequence (P08514 32-1039, chain 1 of 2): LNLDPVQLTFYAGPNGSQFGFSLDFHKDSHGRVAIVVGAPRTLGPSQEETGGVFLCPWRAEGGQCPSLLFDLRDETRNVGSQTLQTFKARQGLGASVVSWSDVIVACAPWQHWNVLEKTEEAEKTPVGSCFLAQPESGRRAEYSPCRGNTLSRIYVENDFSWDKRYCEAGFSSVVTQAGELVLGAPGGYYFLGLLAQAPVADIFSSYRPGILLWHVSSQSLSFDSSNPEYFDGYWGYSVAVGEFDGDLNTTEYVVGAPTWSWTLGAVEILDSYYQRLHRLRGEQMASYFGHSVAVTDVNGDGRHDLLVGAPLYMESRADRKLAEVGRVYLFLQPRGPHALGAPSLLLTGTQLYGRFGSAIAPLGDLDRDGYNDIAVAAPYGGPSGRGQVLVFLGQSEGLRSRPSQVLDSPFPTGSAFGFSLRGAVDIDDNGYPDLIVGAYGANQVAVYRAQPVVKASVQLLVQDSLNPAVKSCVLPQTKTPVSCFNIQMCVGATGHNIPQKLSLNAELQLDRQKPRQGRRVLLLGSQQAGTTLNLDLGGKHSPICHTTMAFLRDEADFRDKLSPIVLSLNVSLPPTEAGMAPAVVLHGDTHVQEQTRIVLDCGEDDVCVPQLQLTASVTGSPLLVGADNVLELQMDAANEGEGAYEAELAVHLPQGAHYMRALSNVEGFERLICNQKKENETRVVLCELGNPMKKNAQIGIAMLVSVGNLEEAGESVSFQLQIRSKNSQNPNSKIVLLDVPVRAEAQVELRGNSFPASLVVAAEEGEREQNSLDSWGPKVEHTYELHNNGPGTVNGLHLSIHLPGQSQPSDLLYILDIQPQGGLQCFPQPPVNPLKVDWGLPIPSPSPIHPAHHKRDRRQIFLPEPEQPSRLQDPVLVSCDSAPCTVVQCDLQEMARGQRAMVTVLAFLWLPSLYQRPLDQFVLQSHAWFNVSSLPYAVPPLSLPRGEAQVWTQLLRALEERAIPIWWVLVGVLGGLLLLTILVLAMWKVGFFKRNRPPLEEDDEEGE
T2 sequence (P05106 27-788, chain 2 of 2): as the sequence (P05106 27-788, chain 2 of 2) above

Binder	shift of the adhesion dose-response curve with AP5 against no additive [1]	binding result [2]	Kd [3]	fold increase in specific binding with phorbol myristate acetate against no agonist [4]	Kd [5]	fold lower affinity/avidity than for aPB [6]
Recombinant penton base from adenovirus type 2 (ligand, also called Alexa-penton base; aPB) MQRAAMYEEGPPPSYESVVSAAPVAAALGSPFDAPLDPPFVPPRYLRPTGGRNSIRYSELAPLFDTTRVYLVDNKSTDVASLNYQNDHSNFLTTVIQNNDYSPGEASTQTINLDDRSHWGGDLKTILHTNMPNVNEFMFTNKFKARVMVSRSLTKDKQVELKYEWVEFTLPEGNYSETMTIDLMNNAIVEHYLKVGRQNGVLESDIGVKFDTRNFRLGFDPVTGLVMPGVYTNEAFHPDIILLPGCGVDFTHSRLSNLLGIRKRQPFQEGFRITYDDLEGGNIPALLDVDAYQASLKDDTEQGGDGAGGGNNSGSGAEENSNAAAAAMQPVEDMNDHAIRGDTFATRAEEKRAEAEAAAEAAAPAAQPEVEKPQKKPVIKPLTEDSKKRSYNLISNDSTFTQYRSWYLAYNYGDPQTGIRSWTLLCTPDVTCGSEQVYWSLPDMMQDPVTFRSTSQISNFPVVGAELLPVHSKSFYNDQAVYSQLIRQFTSLTHVFNRFPENQILARPPAPTITTVSENVPALTDHGTLPLRNSIGGVQRVTITDARRRTCPYVYKALGIVSPRVLSSRTF	7 fold	no binding	550 nM	2.7 fold	160 nM	–
Purified human fibrinogen (ligand, also called FITC-fibrinogen) chain 1: ADSGEGDFLAEGGGVRGPRVVERHQSACKDSDWPFCSDEDWNYKCPSGCRMKGLIDEVNQDFTNRINKLKNSLFEYQKNNKDSHSLTTNIMEILRGDFSSANNRDNTYNRVSEDLRSRIEVLKRKVIEKVQHIQLLQKNVRAQLVDMKRLEVDIDIKIRSCRGSCSRALAREVDLKDYEDQQKQLEQVIAKDLLPSRDRQHLPLIKMKPVPDLVPGNFKSQLQKVPPEWKALTDMPQMRMELERPGGNEITRGGSTSYGTGSETESPRNPSSAGSWNSGSSGPGSTGNRNPGSSGTGGTATWKPGSSGPGSTGSWNSGSSGTGSTGNQNPGSPRPGSTGTWNPGSSERGSAGHWTSESSVSGSTGQWHSESGSFRPDSPGSGNARPNNPDWGTFEEVSGNVSPGTRREYHTEKLVTSKGDKELRTGKEKVTSGSTTTTRRSCSKTVTKTVIGPDGHKEVTKEVVTSEDGSDCPEAMDLGTLSGIGTLDGFRHRHPDEAAFFDTASTGKTFPGFFSPMLGEFVSETESRGSESGIFTNTKESSSHHPGIAEFPSRGKSSSYSKQFTSSTSYNRGDSTFESKSYKMADEAGSEADHEGTHSTKRGHAKSRPV chain 2: QGVNDNEEGFFSARGHRPLDKKREEAPSLRPAPPPISGGGYRARPAKAAATQKKVERKAPDAGGCLHADPDLGVLCPTGCQLQEALLQQERPIRNSVDELNNNVEAVSQTSSSSFQYMYLLKDLWQKRQKQVKDNENVVNEYSSELEKHQLYIDETVNSNIPTNLRVLRSILENLRSKIQKLESDVSAQMEYCRTPCTVSCNIPVVSGKECEEIIRKGGETSEMYLIQPDSSVKPYRVYCDMNTENGGWTVIQNRQDGSVDFGRKWDPYKQGFGNVATNTDGKNYCGLPGEYWLGNDKISQLTRMGPTELLIEMEDWKGDKVKAHYGGFTVQNEANKYQISVNKYRGTAGNALMDGASQLMGENRTMTIHNGMFFSTYDRDNDGWLTSDPRKQCSKEDGGGWWYNRCHAANPNGRYYWGGQYTWDMAKHGTDDGVVWMNWKGSWYSMRKMSMKIRPFFPQQ chain 3: YVATRDNCCILDERFGSYCPTTCGIADFLSTYQTKVDKDLQSLEDILHQVENKTSEVKQLIKAIQLTYNPDESSKPNMIDAATLKSRKMLEEIMKYEASILTHDSSIRYLQEIYNSNNQKIVNLKEKVAQLEAQCQEPCKDTVQIHDITGKDCQDIANKGAKQSGLYFIKPLKANQQFLVYCEIDGSGNGWTVFQKRLDGSVDFKKNWIQYKEGFGHLSPTGTTEFWLGNEKIHLISTQSAIPYALRVELEDWNGRTSTADYAMFKVGPEADKYRLTYAYFAGGDAGDAFDGFDFGDDPSDKFFTSHNGMQFSTWDNDNDKFEGNCAEQDGSGWWMNKCHAGHLNGVYYQGGTYSKASTPNGYDNGIIWATWKTRWYSMKKTTMKIIPFNRLTIGEGQQHHLGGAKQAGDV	–	–	9200 nM	–	566 nM	~15 fold
